Values of other authors as cited in US20240238439A1, “HER3-BINDING ANTIBODY-DRUG CONJUGATE” (Hummingbird Bioscience Pte. Ltd., priority 2023, published 2024).

Columns and labels:
[1] = system: HER3 overexpressing cells
[2] = target: human HER3 (Homo sapiens, UniProt P21860)
[3] = Differential Scanning Fluorimetry
[4] = system: HER3-mediated signalling in cells of HER3-expressing cancer cell lines; conditions: in vitro
[5] = system: thyroid cancer cell lines harbouring the V600E BRAF mutation
[6] = system: human cancer cell line-derived xenograft tumors; conditions: in vivo
[7] = target: interaction between HER3 and EGFR (Homo sapiens, UniProt P21860)
[8] = target: interaction between HER3 and HER2 (Homo sapiens, UniProt P21860); conditions: dose-dependent
[9] = system: cyno, mouse and rat HER3
[10] = system: xenograft tumors derived from a human cancer cell line harbouring an NRG gene fusion
[11] = system: HER3-mediated signalling in HER3-expressing human cancer cell line-derived xenograft tumors; conditions: in vivo
[12] = system: cancer cells; conditions: in vitro

B1: 10D1F hIgG1: HER3-binding antibody clone 10D1F (VH SEQ ID NO:33, VL SEQ ID NO:58) in human IgG1/Vκ format (antibody, V domains shown)
VH: QVQLQESGPGLVKPSQTLSLTCTVSGYSITSGYSWHWIRQHPGKGLEWIGSIRYSGGTDYNPSLKSLVTISADTSKNQFSLKLSSVTAADTAVYYCARMTTAPWYPFDYWGQGTTVTVSS
VL: DIQMTQSPSSVSASVGDRVTITCKASQIVGSNVAWYQQKPGKAPEPLIYSASYLYSGVPSRFSGSGSGTDFTLTISSLQPEDFATYYCQQYSSHPLTFGQGTKLEIK
ADCC activity [1]: induces ADCC activity against HER3 overexpressing cells in a dose-dependent manner | binding to human HER3 [2]: high affinity and specificity | cross-reactivity with other human EGFR family members [2]: no cross-reactivity | ligand dependence of binding to HER3 [2]: ligand (NRG)-independent | affinity of binding to human HER3 ([2]; in the presence or absence of human NRG1): subpicomolar | melting temperature [3]: 70.0 °C | HER3-mediated signalling [4]: inhibits HER3-mediated signalling | in vitro proliferation [5]: inhibits in vitro proliferation | growth of xenograft tumors [6]: potently inhibits growth of human cancer cell line-derived xenograft tumors in vivo | inhibition of interaction between HER3 and EGFR [7]: inhibits interaction between HER3 and EGFR in a dose-dependent fashion | inhibition of interaction between HER3 and HER2 [8]: highly potent | binding to cyno, mouse and rat HER3 [9]: high-affinity binding | growth of xenograft tumors [10]: extremely potent at inhibiting growth | HER3-mediated signalling [11]: inhibits HER3-mediated signalling | growth of cancer cells [12]: potently inhibits the growth of cancer cells in vitro
